These results are taken from US20240317854A1 (Merck Sharp & Dohme, published 2024).

In this assay the target is T1, human immunoglobulin-like transcript 3 (ILT3) (human, UniProt Q8NHJ6 22-448).
T1 construct: whole, on cells; also called LILRB4; LIR5
The assay can be described thus: receptor occupancy in blood samples of trial participants dosed in vivo (Q3W).

B1: Humanized anti-ILT3 mAb (52B8 VH1 M64V/VL5 N34Q) IgG4 S228P/Kappa (antibody, V domains shown)
VH: EVQLVESGGGLVQPGGSLRLSCAASGFTFSNYGMSWVRQAPGKGLEWVATISGGGDYTNYPDSVRGRFTISRDNAKNSLYLQMNSLRAEDTAVYYCGRRLWFRSLYYAMDYWGQGTLVTVSS
VL: DIQLTQSPSSLSASVGDRVTITCRASEKVDSFGQSFMHWYQQKPGKAPKLLIYLTSNLDSGVPSRFSGSGSGTDFTLTISSLQPEDFATYYCQQNNEDPYTFGQGTKLEIKR
notes: also called mAb number 46; mAb No. 46
As to B1, the binding result is given as “binds”.
